Experimental data: the supplement of paper PMC10126150
± gives the standard deviation of the averaged measurements.

Tested on: ATP
Experiment: switch fluorescence ratio, 500 uM ATP over buffer (Cy3 cluster intensity, sum of 5 cycles each) (fold (ratio)); higher = stronger signal-on switching upon ATP binding; sequences stand for … in TCGTCGGCAGCGTCAGATGTGTATAAGAGACAGTTTTTTTTTTTTTTTTTTTTTTTTT…TC
Conditions: aptamer strand: ATP DNA aptamer (quencher-CACCTGGGGGAGTATTGCGGAGGAAGG + anchor), 100 nM annealed; ATP concentration: 500 uM
Procedure, shortened: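 Per cluster, summed Cy3 intensity from the target cycles was divided by that from the buffer cycles to give the fluorescence ratio, then averaged per switch-domain sequence. Clusters outside 100-1000 RFU were excluded. The Cy3-labelled switching-strand clusters, on a modified Illumina MiSeq flow-cell, were annealed to 100 nM quencher-labelled ATP aptamer and imaged in selection buffer, then after 15 min with 500 uM ATP at 22 °C, for five cycles with NaOH stripping and re-annealing between them.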
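Also: ATP exposure 15 min at 22 °C before imaging.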

Sequence | switch fluorescence ratio
TAGGGAGATG | 0.996 ± 0.056
TAGGGAGGGT | 1.11 ± 0.2
TAGGGATTGG | 1.01 ± 0.039
TAGGGCGCCA | 0.995 ± 0.057
TAGGGGAAAA | 1.02 ± 0.019
TAGGGGAATA | 1.01 ± 0.044
TAGGGGAGAA | 1.01 ± 0.014
TAGGGGCTTT | 1.04 ± 0.062
TAGGGGGCCA | 1.014 ± 0.004
TAGGGGGGAT | 0.992 ± 0.035
TAGGGGGGT | 0.9765 ± 0.0032
TAGGGGGTCA | 1 ± 0.022
TAGGGGGTT | 1.01 ± 0.026
TAGGGGTCCA | 0.987 ± 0.018
TAGGGGTCTG | 1.032 ± 0.0059
TAGGGGTGCC | 0.98 ± 0.034
TAGGGGTGCG | 1 ± 0.038
TAGGGGTGGT | 0.984 ± 0.032
TAGGGTATGG | 0.9792 ± 0.0083
TAGGGTGGGG | 0.99 ± 0.072
TAGGGTTCGC | 1.06 ± 0.082
TAGGGTTTAA | 1.01 ± 0.021
TAGGGTTTGG | 0.992 ± 0.014

Sequence | switch fluorescence ratio
TAGGTAAATC | 1.01 ± 0.024
TAGGTAAGAT | 0.993 ± 0.015
TAGGTAGTTG | 0.952 ± 0.051
TAGGTATTCA | 0.9988 ± 0.0046
TAGGTCCAAT | 1.01 ± 0.015
TAGGTCCGTT | 0.988 ± 0.031
TAGGTCTGTG | 0.987 ± 0.014
TAGGTGAGGG | 1.11 ± 0.16
TAGGTGGAAA | 0.992 ± 0.042
TAGGTGGGGC | 0.996 ± 0.03
TAGGTGGTTG | 1 ± 0.03
TAGGTTATTG | 0.995 ± 0.024
TAGGTTCGAC | 0.972 ± 0.031
TAGGTTGAAC | 0.974 ± 0.05
TAGGTTGATG | 0.981 ± 0.035
TAGGTTGTGG | 0.994 ± 0.016
TAGGTTTGCA | 1.02 ± 0.039
TAGTAAGTCA | 0.976 ± 0.023
TAGTAATGGT | 1.032 ± 0.0084
TAGTACGGAT | 1.01 ± 0.007
TAGTACTAGA | 1.03 ± 0.02
TAGTACTATC | 0.993 ± 0.021
TAGTAGACTC | 1.46 ± 0.75

Sequence | switch fluorescence ratio
TAGTAGGGGG | 0.9691 ± 0.0061
TAGTAGTGTG | 0.9625 ± 0.001
TAGTATAG | 0.9745 ± 0.0045
TAGTATTGTA | 1 ± 0.039
TAGTCGGAGA | 1.01 ± 0.019
TAGTCGTCGT | 1.02 ± 0.0021
TAGTCTTGGG | 1.001 ± 0.0026
TAGTGGGAGA | 1.03 ± 0.029
TAGTGGGCGG | 1.07 ± 0.046
TAGTGGGGGT | 1.01 ± 0.022
TAGTGTAGGA | 1 ± 0.034
TAGTGTCAGG | 0.988 ± 0.038
TAGTGTTGGT | 0.975 ± 0.016
TAGTTAGGCA | 0.9819 ± 0.0053
TAGTTAGTGT | 0.981 ± 0.013
TAGTTATTTA | 0.99 ± 0.033
TAGTTATTTT | 1.01 ± 0.021
TAGTTCGGTG | 0.988 ± 0.042
TAGTTGAGCT | 0.9997 ± 0.0061
TAGTTGCATT | 0.994 ± 0.003
TAGTTGGGGT | 1 ± 0.03
TAGTTGGTCT | 0.974 ± 0.028
TAGTTGTTTT | 1 ± 0.04

Sequence | switch fluorescence ratio
TAGTTTAGGT | 0.9964 ± 0.0051
TAGTTTTAAA | 1.02 ± 0.044
TAGTTTTATA | 1.016 ± 0.009
TAGTTTTGAT | 0.963 ± 0.029
TAGTTTTTTG | 0.993 ± 0.053
TATAAAAAGC | 1 ± 0.013
TATAAAAGTC | 0.992 ± 0.023
TATAAAATTC | 1.24 ± 0.43
TATAAATGTT | 0.9936 ± 0.0065
TATAAATTTT | 0.992 ± 0.036
TATAACGGAT | 1.01 ± 0.025
TATAACGTCC | 1.11 ± 0.093
TATAAGAAGC | 0.993 ± 0.021
TATAAGACTA | 1.02 ± 0.021
TATAAGATGT | 0.983 ± 0.025
TATAAGCGGA | 0.993 ± 0.028
TATAAGGAGT | 1.01 ± 0.044
TATAAGGATC | 0.982 ± 0.057
TATAAGGCTA | 1.02 ± 0.028
TATAAGGGGG | 0.982 ± 0.021
TATAAGGTGT | 1.23 ± 0.11
TATAAGTTCC | 1.07 ± 0.075
TATAAGTTGT | 1 ± 0.011

Sequence | switch fluorescence ratio
TATAATAAGG | 0.9996 ± 0.0098
TATAATACAA | 1.024 ± 0.0097
TATAATCGGT | 0.975 ± 0.014
TATAATTAGG | 0.98 ± 0.027
TATAATTTAC | 1.06 ± 0.017
TATACACGGA | 1.08 ± 0.015
TATACATGCG | 1.04 ± 0.025
TATACGACAT | 1.16 ± 0.2
TATACGATTG | 0.985 ± 0.013
TATACGGCCG | 1 ± 0.0059
TATACGGGGC | 1.01 ± 0.027
TATACGTGGG | 1.03 ± 0.046
TATACGTTTT | 1.12 ± 0.14
TATACTGCAC | 1.54 ± 0.032
TATACTGCGC | 1.065 ± 0.0087
TATAGAAATA | 0.998 ± 0.017
TATAGAAGGG | 1 ± 0.053
TATAGCAAGT | 1.07 ± 0.034
TATAGCTTCG | 1 ± 0.043
TATAGCTTGG | 1 ± 0.029
TATAGGAGGT | 0.987 ± 0.062
TATAGGCCCC | 0.983 ± 0.015
TATAGGGGCT | 0.9805 ± 0.0098

Sequence | switch fluorescence ratio
TATAGTAGTG | 0.973 ± 0.014
TATAGTCTCG | 1.01 ± 0.019
TATAGTCTTC | 0.959 ± 0.027
TATAGTGCGT | 0.978 ± 0.03
TATAGTGGGA | 1 ± 0.032
TATATCTGAC | 1.16 ± 0.074
TATATGATG | 1.0194 ± 0.00035
TATATGATGC | 0.984 ± 0.029
TATATGATGG | 0.982 ± 0.024
TATATGCACT | 1.07 ± 0.024
TATATGGCGT | 0.989 ± 0.019
TATATGGGTT | 0.9849 ± 0.0062
TATATGGTGT | 1.02 ± 0.024
TATATGTGGC | 1.07 ± 0.068
TATATTAGAG | 1.01 ± 0.0023
TATATTAGCT | 1.01 ± 0.026
TATATTGCTA | 1.01 ± 0.026
TATATTTCGT | 1.03 ± 0.07
TATATTTTAG | 1.03 ± 0.021
TATATTTTGG | 1.02 ± 0.074
TATATTTTTT | 1.02 ± 0.068
TATCAAATTG | 1.02 ± 0.025
TATCAGGGGG | 0.988 ± 0.026

Sequence | switch fluorescence ratio
TATCAGTGGT | 0.997 ± 0.026
TATCATAGCC | 1.02 ± 0.027
TATCATCCGG | 0.985 ± 0.032
TATCATGTTG | 0.9987 ± 0.0047
TATCATTTAA | 1.005 ± 0.009
TATCCAACAT | 1.036 ± 0.00037
TATCCACCGT | 1.077 ± 0.0031
TATCCCTGCT | 1 ± 0.027
TATCGAAGTG | 0.993 ± 0.019
TATCGACGGC | 1.03 ± 0.05
TATCGCGAAT | 1.01 ± 0.021
TATCGGCTGG | 1.01 ± 0.025
TATCGGGATT | 1.02 ± 0.026
TATCGGGGCA | 0.9622 ± 0.007
TATCGGTCTA | 1.006 ± 0.005
TATCGGTTAT | 0.984 ± 0.013
TATCGTAAAT | 1 ± 0.029
TATCGTATTC | 0.97 ± 0.037
TATCGTGGGA | 1.01 ± 0.019
